From patent publication US20220317121A1

How the values were obtained:
Test in all cases: line blot with purified recombinant antigen
H8-CD2BP2[human] (human) = H8-CD2BP2[human] (human) (UniProt O95400)
[1] = target: H8-TJP1[human](aa1-575) (human) (UniProt Q07157)
[2] = target: NVL[human]-IF1-H6 (human) (UniProt O15381)
UniProt O15381, sequence (O15381 other isoform, or with tags, fused parts or gaps limits assumed): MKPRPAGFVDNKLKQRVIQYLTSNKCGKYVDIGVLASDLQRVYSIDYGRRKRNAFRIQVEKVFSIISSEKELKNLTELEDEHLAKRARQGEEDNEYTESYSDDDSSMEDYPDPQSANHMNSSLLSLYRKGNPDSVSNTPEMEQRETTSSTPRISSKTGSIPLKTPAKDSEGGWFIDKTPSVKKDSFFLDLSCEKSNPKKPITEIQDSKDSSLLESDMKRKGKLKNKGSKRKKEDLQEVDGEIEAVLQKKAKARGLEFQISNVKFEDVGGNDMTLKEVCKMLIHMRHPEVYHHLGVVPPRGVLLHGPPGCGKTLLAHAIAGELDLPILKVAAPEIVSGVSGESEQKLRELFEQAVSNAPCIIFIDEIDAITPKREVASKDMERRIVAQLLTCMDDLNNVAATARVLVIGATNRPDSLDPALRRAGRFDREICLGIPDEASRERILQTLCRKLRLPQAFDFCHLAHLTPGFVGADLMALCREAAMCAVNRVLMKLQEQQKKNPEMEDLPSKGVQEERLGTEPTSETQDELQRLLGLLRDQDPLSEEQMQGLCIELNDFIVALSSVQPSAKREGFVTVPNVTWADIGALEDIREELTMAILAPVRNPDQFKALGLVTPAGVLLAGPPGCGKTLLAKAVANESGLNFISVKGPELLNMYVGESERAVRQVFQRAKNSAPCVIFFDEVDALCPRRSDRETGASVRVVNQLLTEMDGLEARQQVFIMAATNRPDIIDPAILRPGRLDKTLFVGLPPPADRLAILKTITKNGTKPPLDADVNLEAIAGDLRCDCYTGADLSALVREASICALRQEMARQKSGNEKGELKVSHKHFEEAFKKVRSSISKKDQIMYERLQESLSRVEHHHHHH

UniProt O95400, sequence (O95400 other isoform, or with tags, fused parts or gaps limits assumed): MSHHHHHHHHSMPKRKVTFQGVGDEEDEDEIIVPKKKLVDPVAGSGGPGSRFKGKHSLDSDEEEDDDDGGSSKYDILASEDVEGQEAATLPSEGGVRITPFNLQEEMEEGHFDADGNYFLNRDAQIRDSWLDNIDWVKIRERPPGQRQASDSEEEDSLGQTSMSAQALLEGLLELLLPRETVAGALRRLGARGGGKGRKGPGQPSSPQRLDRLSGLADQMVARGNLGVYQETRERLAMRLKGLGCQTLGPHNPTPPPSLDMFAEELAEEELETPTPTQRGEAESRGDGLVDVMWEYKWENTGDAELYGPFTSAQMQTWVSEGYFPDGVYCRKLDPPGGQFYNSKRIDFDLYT
UniProt Q07157, sequence (Q07157 other isoform, or with tags, fused parts or gaps limits assumed): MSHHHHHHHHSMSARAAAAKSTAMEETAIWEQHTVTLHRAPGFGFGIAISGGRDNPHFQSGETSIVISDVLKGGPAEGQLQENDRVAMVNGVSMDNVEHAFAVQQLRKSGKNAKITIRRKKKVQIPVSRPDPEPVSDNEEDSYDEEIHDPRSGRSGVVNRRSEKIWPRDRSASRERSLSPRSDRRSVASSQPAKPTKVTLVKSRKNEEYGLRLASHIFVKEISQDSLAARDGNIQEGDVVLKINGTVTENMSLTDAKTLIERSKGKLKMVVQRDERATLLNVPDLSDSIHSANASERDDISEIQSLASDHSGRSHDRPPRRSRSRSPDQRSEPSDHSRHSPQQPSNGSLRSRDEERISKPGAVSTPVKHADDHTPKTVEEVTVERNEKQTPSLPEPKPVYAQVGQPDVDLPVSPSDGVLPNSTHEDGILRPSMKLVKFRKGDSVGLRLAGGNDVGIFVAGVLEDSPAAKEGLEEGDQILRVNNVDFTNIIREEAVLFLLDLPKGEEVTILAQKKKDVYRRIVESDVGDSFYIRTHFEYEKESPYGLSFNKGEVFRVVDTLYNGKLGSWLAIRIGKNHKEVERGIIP

- band intensity (H8-CD2BP2[human] (human)): 111
- band intensity [1]: 101
- band intensity [2]: 15
Substance: anti-His-tag-AP (monoclonal anti-His-AP antibody produced in mouse, A5588, Sigma-Aldrich)
